Results on one protein are retold here after article PMC6444176 (Biochemistry and Biophysics Reports, 2019).

The data set concerns the molecule itself. The data set can be described thus: SEC.

B1: His-MBP-VWA (hCLCA1 von Willebrand factor type A domain construct, amino acids 240-544) (domain or fragment, human, UniProt A8K7I4 240-544, looked up)
chain: AQHVDSIVEFCTEQNHNKEAPNKQNQKCNLRSTWEVIRDSEDFKKTTPMTTQPPNPTFSLLQIGQRIVCLVLDKSGSMATGNRLNRLNQAGQLFLLQTVELGSWVGMVTFDSAAHVQNELIQINSGSDRDTLAKRLPAAASGGTSICSGLRSAFTVIRKKYPTDGSEIVLLTDGEDNTISGCFNEVKQSGAIIHTVALGPSAAQELEELSKMTGGLQTYASDQVQNNGLIDAFGALSSGNGAVSQRSIQLESKGLTLQNSQWMNGTVIVDSTVGKDTLFLITWTMQPPQILLWDPSGQKQGGFVV
Regarding B1, the stoichiometry N (usually the number of molecules, sites or subunits per partner or assembly) was 2.
